Laboratory results published in PMC3875388.

Molecular target: AhR;ARNT (mouse (C57BL/6);mouse (C57BL/6), UniProt P30561;P53762 1-848;1-791, |)
Assay: EMSA

AhR;ARNT, sequence (P30561 whole entry, chain 1 of 2): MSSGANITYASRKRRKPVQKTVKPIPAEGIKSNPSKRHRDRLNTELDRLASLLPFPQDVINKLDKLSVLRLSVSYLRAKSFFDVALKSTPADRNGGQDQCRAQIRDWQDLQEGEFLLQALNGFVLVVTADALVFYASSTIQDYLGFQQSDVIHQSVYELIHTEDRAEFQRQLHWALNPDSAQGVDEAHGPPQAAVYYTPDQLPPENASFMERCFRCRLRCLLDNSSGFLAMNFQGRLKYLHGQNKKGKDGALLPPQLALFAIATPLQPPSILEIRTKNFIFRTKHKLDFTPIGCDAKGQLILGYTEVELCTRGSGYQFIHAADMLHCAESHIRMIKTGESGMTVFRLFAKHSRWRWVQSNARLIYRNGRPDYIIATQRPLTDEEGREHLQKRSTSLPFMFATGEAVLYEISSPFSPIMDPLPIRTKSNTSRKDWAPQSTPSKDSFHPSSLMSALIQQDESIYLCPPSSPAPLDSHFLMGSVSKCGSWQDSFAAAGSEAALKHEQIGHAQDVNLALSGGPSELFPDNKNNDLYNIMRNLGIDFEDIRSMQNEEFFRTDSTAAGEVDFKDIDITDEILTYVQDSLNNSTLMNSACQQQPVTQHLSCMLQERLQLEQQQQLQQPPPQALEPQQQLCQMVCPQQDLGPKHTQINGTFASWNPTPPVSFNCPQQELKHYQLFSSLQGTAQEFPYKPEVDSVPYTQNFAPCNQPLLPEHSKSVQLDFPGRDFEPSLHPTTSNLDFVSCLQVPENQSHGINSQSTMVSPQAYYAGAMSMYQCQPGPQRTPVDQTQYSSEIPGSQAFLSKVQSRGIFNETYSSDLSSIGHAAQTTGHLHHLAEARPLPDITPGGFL
AhR;ARNT, sequence (P53762 whole entry, chain 2 of 2): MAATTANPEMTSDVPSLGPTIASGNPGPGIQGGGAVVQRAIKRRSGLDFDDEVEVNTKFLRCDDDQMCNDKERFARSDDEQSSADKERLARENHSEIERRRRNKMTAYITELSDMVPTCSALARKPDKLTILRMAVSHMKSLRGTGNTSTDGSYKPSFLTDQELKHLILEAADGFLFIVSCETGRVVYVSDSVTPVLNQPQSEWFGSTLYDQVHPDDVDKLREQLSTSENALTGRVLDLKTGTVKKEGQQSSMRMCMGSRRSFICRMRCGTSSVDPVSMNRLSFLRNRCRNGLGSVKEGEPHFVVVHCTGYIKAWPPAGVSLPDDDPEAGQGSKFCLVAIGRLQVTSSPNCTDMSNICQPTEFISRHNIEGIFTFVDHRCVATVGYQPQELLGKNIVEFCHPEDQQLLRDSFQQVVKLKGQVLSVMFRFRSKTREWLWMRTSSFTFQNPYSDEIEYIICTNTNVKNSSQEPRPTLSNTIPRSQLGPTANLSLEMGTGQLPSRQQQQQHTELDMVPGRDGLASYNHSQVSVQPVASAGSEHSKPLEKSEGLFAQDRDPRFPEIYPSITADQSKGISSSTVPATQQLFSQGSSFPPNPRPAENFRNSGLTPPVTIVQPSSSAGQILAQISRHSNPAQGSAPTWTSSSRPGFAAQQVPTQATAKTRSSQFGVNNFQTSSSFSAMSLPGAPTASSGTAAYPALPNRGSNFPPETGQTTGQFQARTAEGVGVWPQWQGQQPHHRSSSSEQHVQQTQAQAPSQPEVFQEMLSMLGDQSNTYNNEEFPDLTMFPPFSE

B1: Bax DRE-like (dsDNA)
DNA 1: GATCCAGAAAGCCGGGCGTGGTGGCGCACGCCTTTAATCCCA
DNA 2: GATCTGGGATTAAAGGCGTGCGCCACCACGCCCGGCTTTCTG
B1: no binding.
